Experimental data taken from patent US20120301477A1.

Target: CCR9 (chemokine (C-C motif) receptor 9) (human) (UniProt P51686)
Assay: cell-based or functional assay

Sequence of UniProt P51686 (P51686 whole entry): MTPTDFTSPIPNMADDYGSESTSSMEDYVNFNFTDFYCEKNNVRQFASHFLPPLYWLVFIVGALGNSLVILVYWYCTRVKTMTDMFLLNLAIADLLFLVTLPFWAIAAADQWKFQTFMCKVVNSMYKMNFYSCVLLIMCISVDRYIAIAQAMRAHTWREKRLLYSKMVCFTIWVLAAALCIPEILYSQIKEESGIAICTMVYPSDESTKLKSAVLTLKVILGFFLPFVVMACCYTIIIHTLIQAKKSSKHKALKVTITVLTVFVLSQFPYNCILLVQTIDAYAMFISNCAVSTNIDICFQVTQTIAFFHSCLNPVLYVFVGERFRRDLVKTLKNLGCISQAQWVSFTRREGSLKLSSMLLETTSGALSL

- impairment of migratory response to CCL25 after CCR9 siRNA, melanoma line ML: 76%
- impairment of migratory response to CCL25 after CCR9 siRNA, melanoma line MP: 63%
Substance: Human recombinant CCL25 (from UniProt O15444 24-150) (ligand)
